Tests used:
Conditions in all cases: both partners purified
[1] = target: T1, TRPA1 N-terminal cytosolic region (aa 1-721), GST-tagged (mouse, UniProt Q8BLA8 1-721); experiment: pull-down; competition: immobilised TRP sequence with CaM or HINT1 and increasing concentrations of σ1R (up to 200 nM), 3 mM CaCl2; bound CaM or HINT1 by Western blot, relative to no σ1R
T1 construct: transient receptor potential ankyrin member 1, mouse, NP_808449, residues 1-721; Vector carries GST/HaloTag and a TEV site; also called TRPA1 N-terminus; TRPA1 N-terminal domain; source: E. coli BL21 (KRX), purified (GStrap FF or HaloLink Resin); not shown: GST, N-terminal, kept

[2] = target: T2, TRPM8 N-terminal cytosolic region (aa 1-639), GST-tagged (mouse, UniProt Q8R4D5 1-639); experiment: pull-down; TRP sequence (100 nM) covalently attached to NHS-activated Sepharose 4FF; prey 200 nM; 200 µL 50 mM Tris-HCl pH 7.5, 0.2% CHAPS, with 3 mM CaCl2; 30 min at RT, three washes; Western blot
T2 construct: transient receptor potential melastatin member 8, mouse, NP_599013, residues 1-639; also called TRPM8 N-terminus; source: E. coli BL21 (KRX), purified (GStrap FF or HaloLink Resin); not shown: GST, N-terminal, kept

[3] = target: T1, TRPA1 N-terminal cytosolic region (aa …); experiment: as above

B1: histidine triad nucleotide-binding protein 1 (HINT1), murine, GST-free (natural protein, mouse, UniProt P70349 1-126, looked up)
chain: MADEIAKAQVAQPGGDTIFGKIIRKEIPAKIIFEDDRCLAFHDISPQAPTHFLVIPKKHISQISVADDDDESLLGHLMIVGKKCAADLGLKRGYRMVVNEGADGGQSVYHIHLHVLGGRQMNWPPG
notes: source: E. coli BL21 (KRX), purified (GStrap FF or HaloLink Resin, cleaved with ProTEV protease, ion exchange); not shown: GST, N-terminal, cleaved
B1: binds [1]; binds [2].

B2: sigma 1 receptor (σ1R), full-length murine, GST-free (natural protein, mouse, UniProt O55242 1-223, looked up)
chain: MPWAAGRRWAWITLILTIIAVLIQAAWLWLGTQNFVFSREEIAQLARQYAGLDHELAFSRLIVELRRLHPGHVLPDEELQWVFVNAGGWMGAMCILHASLSEYVLLFGTALGSHGHSGRYWAEISDTIISGTFHQWKEGTTKSEVFYPGETVVHGPGEATALEWGPNTWMVEYGRGVIPSTLFFALADTFFSTQDYLTLFYTLRAYARGLRLELTTYLFGQDS
notes: sigma 1 receptor, mouse, GenBank AF004927, coding region of the full-length protein; 223 amino acids; also called type 1 sigma receptor; source: E. coli BL21 (KRX), purified (GStrap FF or HaloLink Resin, cleaved with ProTEV protease, ion exchange); not shown: GST, N-terminal, cleaved
B2: binds [2]; binds [3].
